From patent US7811578B2, “Soluble chimeric peptide inhibitors of HIV entry comprising an IZ trimeric coiled-coil peptide and HIV gp41 N-helix coiled-coil peptide” (Whitehead Institute for Biomedical Research, dated 2010)

Key:
[1] = target: HIV-1 HXB2 gp41 (from the HXB2 gp160 gene), on single-round luciferase virus (HIV-1 (HXB2)) (UniProt P04578)
[2] = target: gp160 (precursor protein to gp120/gp41) on CHO cells (HIV, strain not stated)
[3] = target: HIV gp41 on HIV modified to contain a luciferase reporter gene (HIV, strain not stated)
[4] = target: HIV-1 HXB2 gp41 (from the HXB2 gp160 gene), on single-round luciferase virus (HIV-1 (HXB2), UniProt P04578); assay: cell-based or functional assay

## IQN17 (G572D) (designed binder)
[1]
  IC50 (nm), viral infectivity (HIV luciferase assay): 20000 nM

## IQN17 (designed binder)
[2]
  IC50, inhibition of syncytia formation (cell/cell fusion, β-galactosidase): 20 to 80 nM
[3]
  IC50, inhibition of luciferase activity (viral fusion experiment): 250 nM

## GCN4-pIQI (peptide)
[3]
  inhibition of luciferase activity (viral fusion experiment): > 10 µM

## Ac-KIEEIESKIKKIENEIARIKKLLQLTVWGIKQLQARIL-NH2 (designed binder) [II22N17]
[4]
  IC50 (nm), viral infectivity (HIV luciferase assay): ~170 nM

## Ac-LLQLTVWGIKQLQARIL-NH2 [N17]
[4]
  IC50 (nm), viral infectivity (HIV luciferase assay): ~10000 nM

## Ac-IKKEIEAIKKEQEAIKKKIEAIEKLLQLTVWGIKQLQARIL-NH2 (designed binder) [IZN17]
[4]
  IC50 (nm), viral infectivity (HIV luciferase assay): 5.6 nM

## Ac-KIKKIENEIARIKKLLQLTVWGIKQLQARIL-NH2 (designed binder) [II15N17]
[4]
  IC50 (nm), viral infectivity (HIV luciferase assay): ~3000 nM

## Ac-KIEEIESKQKKIENEIARIKKLLQLTVWGIKQLQARIL-NH2 (designed binder) [IQ22N17]
[4]
  IC50 (nm), viral infectivity (HIV luciferase assay): ~1000 nM

## Ac-KQKKIENEIARIKKLLQLTVWGIKQLQARIL-NH2 (designed binder) [IQ15N17]
[4]
  IC50 (nm), viral infectivity (HIV luciferase assay): ~10000 nM

B1: IQN23 version 2 (designed binder)
chain: Ac-RMKQIEDKIEEIESKQKKIENEIARIKKLIEAQQHLLQLTVWGIKQLQARIL-NH2
[4]
  IC50 (nm), viral infectivity (HIV luciferase assay): ~30 nM

## Ac-RMKQIEDKIEEIESKQKKIENEIARIKKLLQLTVWGIKQLQARIL-NH2 (designed binder) [IQN17]
[4]
  IC50 (nm), viral infectivity (HIV luciferase assay): ~180 nM
